The numbers were not newly measured in article PMC5662943, which cites them from elsewhere.

The term Kd denotes the concentration at which binding is half-saturated.

In this series the target is PCNA (Homo sapiens) (UniProt P12004).
UniProt P12004, sequence (P12004 whole entry): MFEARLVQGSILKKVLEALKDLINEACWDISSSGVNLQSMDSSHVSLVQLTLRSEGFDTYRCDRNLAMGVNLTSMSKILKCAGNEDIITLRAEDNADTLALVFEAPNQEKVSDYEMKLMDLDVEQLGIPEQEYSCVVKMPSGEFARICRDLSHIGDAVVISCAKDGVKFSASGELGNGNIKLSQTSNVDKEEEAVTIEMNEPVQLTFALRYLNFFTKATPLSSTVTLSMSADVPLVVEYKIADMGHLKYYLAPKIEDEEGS

As to RFC (from UniProt P35251), the equilibrium dissociation constant (Kd) was 0.2 nM.
